The target in this experiment is SARS-CoV papain-like protease (PLpro), trypsin-trimmed product of P-PLpro(C2)-His6 (SARS-CoV).

Here are results for 1 substance from paper PMC7094341.

As for “ISG15-AMC (full-length) (from UniProt P05161 1-157)”, the kcat/KM of hydrolysis of ISG15-AMC by PLpro (fluorescence, pH 7.8, 25 °C) came to 602000 M⁻¹ s⁻¹.
